Test results reported in patent US20240287161A1 (NATIONAL UNIVERSITY CORPORATION TOTTORI UNIVERSITY, published 2024).

Legend:
[1] = molecular target: T1, HCoV-229E trimeric S protein (amino acids 12-1109) with T4 foldon, histidine tag and strep-tag (HCoV-229E, UniProt P15423 12-1112); assay: ELISA on coated S-trimeric antigen, anti-human IgG-HRP [Human IgG1, NT-193]
T1 chain: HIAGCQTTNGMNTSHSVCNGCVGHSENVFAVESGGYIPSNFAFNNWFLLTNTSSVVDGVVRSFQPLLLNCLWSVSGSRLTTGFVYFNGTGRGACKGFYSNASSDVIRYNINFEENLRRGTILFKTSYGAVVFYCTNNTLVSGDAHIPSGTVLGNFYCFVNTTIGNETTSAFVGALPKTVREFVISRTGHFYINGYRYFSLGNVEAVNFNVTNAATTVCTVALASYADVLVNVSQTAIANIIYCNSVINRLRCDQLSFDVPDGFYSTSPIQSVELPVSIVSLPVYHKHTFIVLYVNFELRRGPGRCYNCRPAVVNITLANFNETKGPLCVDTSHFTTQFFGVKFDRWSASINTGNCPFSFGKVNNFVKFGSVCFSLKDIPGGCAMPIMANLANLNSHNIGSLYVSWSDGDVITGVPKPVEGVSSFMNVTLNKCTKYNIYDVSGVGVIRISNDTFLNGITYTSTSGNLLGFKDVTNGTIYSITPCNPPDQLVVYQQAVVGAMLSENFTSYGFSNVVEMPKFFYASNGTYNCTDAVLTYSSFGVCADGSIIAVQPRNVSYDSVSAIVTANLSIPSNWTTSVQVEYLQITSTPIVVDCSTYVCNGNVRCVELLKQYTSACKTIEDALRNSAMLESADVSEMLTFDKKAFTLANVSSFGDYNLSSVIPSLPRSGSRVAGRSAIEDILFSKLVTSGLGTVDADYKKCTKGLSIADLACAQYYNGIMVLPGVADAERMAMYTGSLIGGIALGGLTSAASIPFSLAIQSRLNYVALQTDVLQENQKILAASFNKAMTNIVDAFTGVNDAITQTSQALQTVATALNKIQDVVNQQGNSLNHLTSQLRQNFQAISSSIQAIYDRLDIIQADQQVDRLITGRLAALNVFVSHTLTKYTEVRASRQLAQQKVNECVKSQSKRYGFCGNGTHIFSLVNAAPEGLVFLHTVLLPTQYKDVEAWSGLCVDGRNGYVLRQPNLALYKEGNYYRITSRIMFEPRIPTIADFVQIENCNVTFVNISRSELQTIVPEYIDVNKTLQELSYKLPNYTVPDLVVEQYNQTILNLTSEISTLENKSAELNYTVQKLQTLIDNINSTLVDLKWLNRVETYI

[2] = molecular target: T2, HCoV-NL63 trimeric S protein (amino acids 22-1293) with T4 foldon, histidine tag and strep-tag (HCoV-NL63, UniProt Q6Q1S2 23-1293); assay: as above
T2 sequence: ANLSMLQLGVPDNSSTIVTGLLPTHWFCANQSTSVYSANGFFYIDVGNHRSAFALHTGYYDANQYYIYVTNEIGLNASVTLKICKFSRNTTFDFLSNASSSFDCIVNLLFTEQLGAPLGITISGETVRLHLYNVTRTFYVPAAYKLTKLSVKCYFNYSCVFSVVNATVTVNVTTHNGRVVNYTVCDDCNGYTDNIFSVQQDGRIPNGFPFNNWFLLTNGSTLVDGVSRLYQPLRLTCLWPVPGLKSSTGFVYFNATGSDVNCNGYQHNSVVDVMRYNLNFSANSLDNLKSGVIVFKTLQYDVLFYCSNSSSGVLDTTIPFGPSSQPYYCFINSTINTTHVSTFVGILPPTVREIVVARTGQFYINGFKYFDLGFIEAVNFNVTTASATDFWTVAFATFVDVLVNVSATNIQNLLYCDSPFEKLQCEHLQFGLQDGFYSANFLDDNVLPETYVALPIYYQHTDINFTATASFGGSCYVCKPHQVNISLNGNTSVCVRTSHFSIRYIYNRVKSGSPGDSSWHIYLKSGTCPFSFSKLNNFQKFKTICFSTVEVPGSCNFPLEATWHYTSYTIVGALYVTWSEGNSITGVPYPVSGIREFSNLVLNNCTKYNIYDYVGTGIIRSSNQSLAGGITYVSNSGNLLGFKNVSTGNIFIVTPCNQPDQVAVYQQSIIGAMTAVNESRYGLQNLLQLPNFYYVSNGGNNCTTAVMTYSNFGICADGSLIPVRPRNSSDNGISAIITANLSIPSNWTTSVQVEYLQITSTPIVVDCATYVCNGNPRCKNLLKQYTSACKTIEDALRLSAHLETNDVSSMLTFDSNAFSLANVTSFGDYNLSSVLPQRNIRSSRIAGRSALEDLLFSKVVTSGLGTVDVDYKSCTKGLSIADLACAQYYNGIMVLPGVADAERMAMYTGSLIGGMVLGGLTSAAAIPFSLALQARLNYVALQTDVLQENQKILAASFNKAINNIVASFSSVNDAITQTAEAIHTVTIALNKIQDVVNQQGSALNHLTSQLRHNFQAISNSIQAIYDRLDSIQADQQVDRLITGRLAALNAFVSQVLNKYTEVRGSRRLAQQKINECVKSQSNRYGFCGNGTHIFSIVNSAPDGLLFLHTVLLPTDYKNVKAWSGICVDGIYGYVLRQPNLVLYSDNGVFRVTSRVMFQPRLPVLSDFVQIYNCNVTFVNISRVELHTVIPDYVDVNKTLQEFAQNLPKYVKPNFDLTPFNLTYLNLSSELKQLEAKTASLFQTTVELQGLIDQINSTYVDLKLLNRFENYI

B1: NT-193 (recombinant human IgG1/kappa antibody) (antibody, V domains shown)
VH: EVQLQQWGAGLLKPSETLSLTCAVYGGSFSGYYWSWIRQPPGKGLEWIGEINHSGSTNYNPSLKSRVTISVDTSKNQFSLKLSSVTAADTAVYYCARGWDLDYYYGMDVWGQGTTVTVSS
VL: DIRMTQSPSAMSASVGDRVTVTCRASQGIGNYLAWFQLKPGKVPKRLIYAASSLQSGVPARFSGGGSGTEFTLTISSLQPEDFATYYCLQHGFLPWTFGQGTKLEIK
B1: no binding (tested: 1000 ng/ml) [1]; no binding (tested: 1000 ng/ml) [2].
